Data: US20260232827A1 (Zymeworks, published 2026)

T1: Construct 7 (human NaPi2b del 317-326) (human, UniProt O95436 1-690)
T1 construct: also called CL_#29921
T1 sequence: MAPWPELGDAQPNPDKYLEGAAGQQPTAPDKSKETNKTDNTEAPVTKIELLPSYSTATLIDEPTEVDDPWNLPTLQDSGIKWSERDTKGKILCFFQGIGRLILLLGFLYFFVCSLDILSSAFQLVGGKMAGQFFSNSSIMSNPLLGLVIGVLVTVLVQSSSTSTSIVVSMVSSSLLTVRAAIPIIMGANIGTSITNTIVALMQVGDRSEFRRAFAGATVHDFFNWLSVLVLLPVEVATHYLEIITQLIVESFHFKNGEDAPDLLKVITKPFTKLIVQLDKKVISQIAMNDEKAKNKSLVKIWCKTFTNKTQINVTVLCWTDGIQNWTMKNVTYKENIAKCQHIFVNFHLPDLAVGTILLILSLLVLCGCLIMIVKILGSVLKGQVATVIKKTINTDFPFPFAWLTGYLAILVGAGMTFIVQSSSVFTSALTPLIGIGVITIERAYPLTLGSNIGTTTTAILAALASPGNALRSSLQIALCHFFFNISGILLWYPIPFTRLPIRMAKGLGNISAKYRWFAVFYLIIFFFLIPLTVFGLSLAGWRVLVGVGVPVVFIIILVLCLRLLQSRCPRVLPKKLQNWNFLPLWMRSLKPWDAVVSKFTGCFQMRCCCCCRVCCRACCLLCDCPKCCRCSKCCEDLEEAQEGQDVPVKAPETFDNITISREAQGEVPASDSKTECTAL

T2: Construct 6 (human NaPi2b del 317-333) (human, UniProt O95436 1-690)
T2 construct: also called CL_#29919
T2 sequence: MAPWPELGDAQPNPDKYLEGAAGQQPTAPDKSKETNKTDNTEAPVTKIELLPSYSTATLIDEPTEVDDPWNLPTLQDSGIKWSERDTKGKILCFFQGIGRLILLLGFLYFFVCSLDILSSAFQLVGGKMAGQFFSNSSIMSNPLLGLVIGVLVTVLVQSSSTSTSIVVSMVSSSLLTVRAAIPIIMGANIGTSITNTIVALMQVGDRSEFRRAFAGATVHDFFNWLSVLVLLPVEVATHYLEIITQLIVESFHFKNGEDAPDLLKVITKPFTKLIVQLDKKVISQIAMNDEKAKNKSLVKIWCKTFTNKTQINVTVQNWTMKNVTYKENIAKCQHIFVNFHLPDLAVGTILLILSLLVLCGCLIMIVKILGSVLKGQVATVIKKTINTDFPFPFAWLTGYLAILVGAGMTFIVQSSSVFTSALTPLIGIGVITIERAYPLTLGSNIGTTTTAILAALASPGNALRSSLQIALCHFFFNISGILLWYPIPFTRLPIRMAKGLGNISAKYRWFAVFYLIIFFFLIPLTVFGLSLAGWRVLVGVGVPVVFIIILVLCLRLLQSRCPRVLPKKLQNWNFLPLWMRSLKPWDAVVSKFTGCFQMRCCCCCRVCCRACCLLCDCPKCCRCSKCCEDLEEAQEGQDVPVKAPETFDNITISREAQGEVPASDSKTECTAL

T3: Full length human NaPi2b (sodium-dependent phosphate transporter 2B, SLC34A2) (human, UniProt O95436 1-690)
T3 construct: also called huNaPi2b; CL_#13432
T3 sequence: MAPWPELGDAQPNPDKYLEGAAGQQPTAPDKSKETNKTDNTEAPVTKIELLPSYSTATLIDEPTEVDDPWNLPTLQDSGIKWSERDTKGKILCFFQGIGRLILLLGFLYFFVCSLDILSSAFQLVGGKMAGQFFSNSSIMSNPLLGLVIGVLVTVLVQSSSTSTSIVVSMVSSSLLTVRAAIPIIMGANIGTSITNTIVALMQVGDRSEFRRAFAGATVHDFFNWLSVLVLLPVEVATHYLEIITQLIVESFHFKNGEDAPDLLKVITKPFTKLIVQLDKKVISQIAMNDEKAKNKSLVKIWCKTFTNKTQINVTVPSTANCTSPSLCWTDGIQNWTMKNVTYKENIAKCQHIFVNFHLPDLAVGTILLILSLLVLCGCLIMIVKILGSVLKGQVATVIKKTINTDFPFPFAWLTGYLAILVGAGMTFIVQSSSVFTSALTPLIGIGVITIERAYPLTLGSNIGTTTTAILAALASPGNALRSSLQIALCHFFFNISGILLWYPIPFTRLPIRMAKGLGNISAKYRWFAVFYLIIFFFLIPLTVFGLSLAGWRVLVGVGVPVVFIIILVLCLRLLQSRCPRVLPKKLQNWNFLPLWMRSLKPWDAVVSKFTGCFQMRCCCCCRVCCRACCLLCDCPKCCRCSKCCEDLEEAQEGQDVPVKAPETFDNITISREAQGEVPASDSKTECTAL

B1: lifastuzumab (v18993), reference anti-NaPi2b antibody (antibody, human IgG1, kappa)
heavy 1: GEVQLVESGGGLVQPGGSLRLSCAASGFSFSDFAMSWVRQAPGKGLEWVATIGRVAFHTYYPDSMKGRFTISRDNSKNTLYLQMNSLRAEDTAVYYCARHRGFDVGHFDFWGQGTLVTVSSASTKGPSVFPLAPSSKSTSGGTAALGCLVKDYFPEPVTVSWNSGALTSGVHTFPAVLQSSGLYSLSSVVTVPSSSLGTQTYICNVNHKPSNTKVDKKVEPKSCDKTHTCPPCPAPELLGGPSVFLFPPKPKDTLMISRTPEVTCVVVDVSHEDPEVKFNWYVDGVEVHNAKTKPREEQYNSTYRVVSVLTVLHQDWLNGKEYKCKVSNKALPAPIEKTISKAKGQPREPQVYVYPPSRDELTKNQVSLTCLVKGFYPSDIAVEWESNGQPENNYKTTPPVLDSDGSFALVSKLTVDKSRWQQGNVFSCSVMHEALHNHYTQKSLSLSPG
heavy 2: not shown
light: GDIQMTQSPSSLSASVGDRVTITCRSSETLVHSSGNTYLEWYQQKPGKAPKLLIYRVSNRFSGVPSRFSGSGSGTDFTLTISSLQPEDFATYYCFQGSFNPLTFGQGTKVEIKRTVAAPSVFIFPPSDEQLKSGTASVVCLLNNFYPREAKVQWKVDNALQSGNSQESVTEQDSKDSTYSLSSTLTLSKADYEKHKVYACEVTHQGLSSPVTKSFNRGEC
B2: v38591 (humanized anti-NaPi2b antibody, H1L2, wild-type Fc, heavy chains with C-terminal lysine) (antibody, human IgG1, kappa)
heavy: not shown
light: DVQMTQSPSSLSASVGDRVTITCRASQDVYSYLNWYQQKPGKAVKLLIYYTSRLQSGVPSRFSGSGSGTDYTLTISSLQPEDFATYYCQQYNIFPWTFGQGTKLEIKRTVAAPSVFIFPPSDEQLKSGTASVVCLLNNFYPREAKVQWKVDNALQSGNSQESVTEQDSKDSTYSLSSTLTLSKADYEKHKVYACEVTHQGLSSPVTKSFNRGEC
notes: Full-size human IgG1/kappa antibody; also called v38591 (wild-type Fc)
B3: palivizumab (v21995), anti-RSV antibody, negative control (antibody, human IgG1, kappa, V domains shown)
VH: QVTLRESGPALVKPTQTLTLTCTFSGFSLSTSGMSVGWIRQPPGKALEWLADIWWDDKKDYNPSLKSRLTISKDTSKNQVVLKVTNMDPADTATYYCARSMITNWYFDVWGAGTTVTVSS
VL: DIQMTQSPSTLSASVGDRVTITCKSQLSVGYMHWYQQKPGKAPKLLIYDTSKLASGVPSRFSGSGSGTEFTLTISSLQPDDFATYYCFQGSGYPFTFGGGTKLEIKR
B4: MX35 (v18992), reference anti-NaPi2b antibody (antibody, human IgG1, kappa)
heavy 1: GQVQLVQSGAEVVKPGASVKMSCKASGYTFTGYNIHWVKQAPGQGLEWIGAIYPGNGDTSYKQKFRGRATLTADTSTSTVYMELSSLRSEDSAVYYCARGETARATFAYWGQGTLVTVSSASTKGPSVFPLAPSSKSTSGGTAALGCLVKDYFPEPVTVSWNSGALTSGVHTFPAVLQSSGLYSLSSVVTVPSSSLGTQTYICNVNHKPSNTKVDKKVEPKSCDKTHTCPPCPAPELLGGPSVFLFPPKPKDTLMISRTPEVTCVVVDVSHEDPEVKFNWYVDGVEVHNAKTKPREEQYNSTYRVVSVLTVLHQDWLNGKEYKCKVSNKALPAPIEKTISKAKGQPREPQVYVYPPSRDELTKNQVSLTCLVKGFYPSDIAVEWESNGQPENNYKTTPPVLDSDGSFALVSKLTVDKSRWQQGNVFSCSVMHEALHNHYTQKSLSLSPG
heavy 2: not shown
light: GDIQMTQSPSSLSASVGDRVTITCSASQDIGNFLNWYQQKPGKTVKVLIYYTSSLYSGVPSRFSGSGSGTDYTLTISSLQPEDFATYYCQQYSKLPLTFGQGTKLELKRTVAAPSVFIFPPSDEQLKSGTASVVCLLNNFYPREAKVQWKVDNALQSGNSQESVTEQDSKDSTYSLSSTLTLSKADYEKHKVYACEVTHQGLSSPVTKSFNRGEC

Each binder was assayed against T1, Construct 7 (human NaPi2b del 317-326) (assay: flow cytometry, transfected HEK293-6e cells, antibody 2 nM;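 further: transfected cells exposed to test antibody 24 h at 4 °C to block internalization, at least 1,000 events per well, background is mean MFI of unstained cells lacking primary antibody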).

Binder	Background-Subtracted AF647 Mean Fluorescence Intensity
B1	56 MFI
B2	677 MFI
B3	-34 MFI
B4	76 MFI

These binders were tested against T4, Construct 5 (chimeric human NaPi2b, swap in NaPi2a in 304-348) (human) (assay: flow cytometry, transfected HEK293-6e cells, antibody 20 nM).
T4 construct: also called CL_#13436

Binder	Background-Subtracted AF647 Mean Fluorescence Intensity
B1	52 MFI
B3	123 MFI
B4	79 MFI

The binders below were run against T2, Construct 6 (human NaPi2b del 317-333) in the same assay as above.

Binder	Background-Subtracted AF647 Mean Fluorescence Intensity
B1	-3 MFI
B2	-7 MFI
B3	1 MFI
B4	67 MFI

What follows are binders tested against T1, Construct 7 (human NaPi2b del 317-326) in the same assay as above.

Binder	Background-Subtracted AF647 Mean Fluorescence Intensity
B1	35 MFI
B2	981 MFI
B3	-85 MFI
B4	233 MFI

What follows are binders tested against T3, Full length human NaPi2b … in the same assay as above.

Binder	Background-Subtracted AF647 Mean Fluorescence Intensity
B1	1370 MFI
B2	1420 MFI
B3	13 MFI
B4	1250 MFI

Each binder was assayed against T5, Construct 1 (chimeric human NaPi2b, swap in NaPi2c in 239-259) (human) in the same assay as above.
T5 construct: also called CL_#29914

Binder	Background-Subtracted AF647 Mean Fluorescence Intensity
B1	1700 MFI
B2	1860 MFI
B3	-27 MFI
B4	1820 MFI

The binders below were run against T6, Construct 2 (chimeric human NaPi2b, swap in NaPi2c in 280-301) (human) in the same assay as above.
T6 construct: also called CL_#29915

Binder	Background-Subtracted AF647 Mean Fluorescence Intensity
B1	1200 MFI
B2	1340 MFI
B3	-64 MFI
B4	1250 MFI

The binders below were run against T7, Construct 3 (chimeric human NaPi2b, swap in NaPi2c in 304-321) (human) in the same assay as above.
T7 construct: also called CL_#29916

Binder	Background-Subtracted AF647 Mean Fluorescence Intensity
B1	920 MFI
B2	1120 MFI
B3	39 MFI
B4	930 MFI

Each binder was assayed against T8, Construct 4 (chimeric human NaPi2b, swap in NaPi2c in 341-358) (human) in the same assay as above.
T8 construct: also called CL_#13435

Binder	Background-Subtracted AF647 Mean Fluorescence Intensity
B1	1050 MFI
B2	993 MFI
B3	22 MFI
B4	979 MFI
